One molecule from patent US20230272073A1 can be followed below.

The assay deals with IGHV3-21/IGLV3-21^G110 BCR on murine TKO cells (human) (UniProt P01871). Kind of assay: flow cytometry dot plot, cell mix B (1:1 IGHV3-21/IGLV3-21^G110 BCR TKO cells and BCR-negative TKO cells), 5 µg/ml mAb01-01-APC and 2 µg/ml anti-human IgM-PE.
IGHV3-21/IGLV3-21^G110 BCR on murine TKO cells (human), sequence (P01871 other isoform, or with tags, fused parts or gaps, chain 1 of 2): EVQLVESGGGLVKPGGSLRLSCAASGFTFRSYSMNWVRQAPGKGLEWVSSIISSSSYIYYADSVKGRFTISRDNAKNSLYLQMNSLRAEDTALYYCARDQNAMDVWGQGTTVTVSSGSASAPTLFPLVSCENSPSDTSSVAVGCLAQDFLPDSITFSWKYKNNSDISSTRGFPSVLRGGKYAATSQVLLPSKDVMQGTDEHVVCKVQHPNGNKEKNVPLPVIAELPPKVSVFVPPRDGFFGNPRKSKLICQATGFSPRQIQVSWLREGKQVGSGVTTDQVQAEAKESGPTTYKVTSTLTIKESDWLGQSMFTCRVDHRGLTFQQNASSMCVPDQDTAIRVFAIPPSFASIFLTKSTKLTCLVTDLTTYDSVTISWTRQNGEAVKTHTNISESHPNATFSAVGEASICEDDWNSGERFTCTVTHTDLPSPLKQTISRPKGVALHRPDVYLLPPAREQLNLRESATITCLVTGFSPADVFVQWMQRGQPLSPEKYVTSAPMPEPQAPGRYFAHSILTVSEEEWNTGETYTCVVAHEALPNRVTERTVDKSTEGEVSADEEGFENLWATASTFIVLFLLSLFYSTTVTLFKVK
IGHV3-21/IGLV3-21^G110 BCR on murine TKO cells (human), sequence (light, as listed by the source, chain 2 of 2): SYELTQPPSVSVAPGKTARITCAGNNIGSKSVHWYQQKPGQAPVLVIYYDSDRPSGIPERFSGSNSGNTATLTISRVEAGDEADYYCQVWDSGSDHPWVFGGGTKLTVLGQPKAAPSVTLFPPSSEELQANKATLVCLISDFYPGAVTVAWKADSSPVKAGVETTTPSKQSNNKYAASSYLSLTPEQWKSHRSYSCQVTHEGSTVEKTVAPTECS

B1: mAb01-01 (antibody, mouse IgG1, kappa, V domains shown)
VH: QVQLQQSGPGLVQPSQSLSITCTVSGFSLTSYGIHWVRQSPGKGLEWLGVIWRGGGTDSNAAFMSRLSITKDNSKSQVFFKMNSLQADDTAIYYCARSRYDEEESMNYWGQGTSVTVSS
VL: QIVLTQSPASLSASVGETVTITCRASGNIHSYLAWYQQKQGKSPQLLVYNAKTLADGVPSRFSGSGSGTQYSLKINSLQPEDFGSYYCQHFWNTPPTFGAGTKLELKR
Take B1: the share of gated cells (P1) in quadrant Q1 (anti-IgM-PE positive, mAb01-01-APC negative) worked out at 42.2% and the share of gated cells (P1) in quadrant Q2 (anti-IgM-PE positive, mAb01-01-APC positive) is 1.11%.
